US20240101645A1 (HENRY M JACKSON FOUNDATION FOR THE ADVANCEMENT OF MILITARY …, published 2024)

Target: SARS-CoV-1 S on pseudovirions (Sino 1-11, 28 amino acid C-terminal deletion) (SARS-CoV-1, UniProt P59594 14-1227)
Assay: cell-based or functional assay

B1: COV_2063 (antibody, V domains shown)
VH: EVQLVESGGGVVQPGRSLRLSCAASGFTFSSYGMHWVRQAPGKGLEWVAVIWYDGSNKYYADSVKGRFTISRDNSKNTLYLQMNSLRAEDTAVYYCARGPLGSNYFNYDAFDIWGQGTMVTVSS
VL: DVVMTQSPLSLPVTLGQPASISCRSSQSLEYSDGNTYLNWFQQRPGQSPRRLIYKVSKRDSGVPDRFSGSGSGSDFTLKISRVEAEDVGVYYCMQGTHWPLTFGGGTKVEIK
B1 was tested, and the “IC50, SARS-CoV-1 pseudotyped neutralization” value was 0.095 µg/mL.
